{
  "source": "paper PMC9482650",
  "about": "“Quantitative fragmentomics allow affinity mapping of interactomes” (Nature Communications, 2022)",
  "experiment_in_all_cases": "holdup assay",
  "design_in_all_cases": "key: below the threshold = too weak to quantify, mostly under pKd 3.1 to 4",
  "key": {"[1]": {"molecular_target": "T1, APBA1_2, Q02410", "T1 sequence (Q02410 742-832, limits assumed, looked up)": "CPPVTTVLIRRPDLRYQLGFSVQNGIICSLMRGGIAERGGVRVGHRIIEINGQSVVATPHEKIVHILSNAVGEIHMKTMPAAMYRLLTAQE"}, "[2]": {"molecular_target": "CASK, O14936", "sequence (O14936 487-570)": "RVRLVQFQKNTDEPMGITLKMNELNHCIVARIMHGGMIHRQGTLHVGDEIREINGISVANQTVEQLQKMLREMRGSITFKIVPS"}, "[3]": {"molecular_target": "DLG1_1, Q12959"}, "[4]": {"molecular_target": "DLG4_3, P78352", "sequence (P78352 306-403)": "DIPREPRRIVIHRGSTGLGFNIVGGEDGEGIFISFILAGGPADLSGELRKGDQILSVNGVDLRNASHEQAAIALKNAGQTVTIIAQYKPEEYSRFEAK"}, "[5]": {"molecular_target": "FRMPD2_1, Q68DX3", "sequence (Q68DX3 770-861)": "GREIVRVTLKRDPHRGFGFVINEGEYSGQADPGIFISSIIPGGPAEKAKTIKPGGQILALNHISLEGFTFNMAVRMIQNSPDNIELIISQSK"}, "[6]": {"molecular_target": "FRMPD2_2, Q68DX3", "sequence (Q68DX3 944-1038)": "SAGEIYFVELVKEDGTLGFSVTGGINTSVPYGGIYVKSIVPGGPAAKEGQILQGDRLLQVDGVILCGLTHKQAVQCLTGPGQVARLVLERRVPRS"}, "[7]": {"molecular_target": "FRMPD2_3, Q68DX3", "sequence (Q68DX3 1073-1166)": "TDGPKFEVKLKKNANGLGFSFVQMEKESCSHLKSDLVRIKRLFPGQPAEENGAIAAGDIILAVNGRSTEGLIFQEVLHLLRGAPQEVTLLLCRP"}, "[8]": {"molecular_target": "GIPC2, Q8TF65", "sequence (Q8TF65 112-203)": "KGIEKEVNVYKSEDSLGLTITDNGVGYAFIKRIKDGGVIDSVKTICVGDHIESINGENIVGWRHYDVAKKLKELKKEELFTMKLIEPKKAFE"}, "[9]": {"molecular_target": "GORASP1, Q9BQQ3", "sequence (Q9BQQ3 1-208)": "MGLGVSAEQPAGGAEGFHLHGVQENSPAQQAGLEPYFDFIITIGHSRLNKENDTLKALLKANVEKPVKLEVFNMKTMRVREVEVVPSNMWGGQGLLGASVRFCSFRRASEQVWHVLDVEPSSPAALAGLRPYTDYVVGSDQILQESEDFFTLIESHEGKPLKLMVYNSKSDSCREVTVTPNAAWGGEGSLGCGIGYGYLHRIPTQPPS"}, "[10]": {"molecular_target": "T2, GRIP1_3, Q9Y3R0", "T2 sequence (Q9Y3R0 247-346, limits assumed, looked up)": "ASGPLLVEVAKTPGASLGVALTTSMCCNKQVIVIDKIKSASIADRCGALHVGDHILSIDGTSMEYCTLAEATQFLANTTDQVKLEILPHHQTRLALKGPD"}, "[11]": {"molecular_target": "T3, GRIP1_4, Q9Y3R0", "T3 sequence (Q9Y3R0 467-571, limits assumed, looked up)": "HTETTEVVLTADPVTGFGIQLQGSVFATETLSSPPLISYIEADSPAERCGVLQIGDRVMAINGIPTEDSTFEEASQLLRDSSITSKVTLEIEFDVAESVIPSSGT"}, "[12]": {"molecular_target": "GRIP2_6, Q9C0E4", "sequence (Q9C0E4 648-740)": "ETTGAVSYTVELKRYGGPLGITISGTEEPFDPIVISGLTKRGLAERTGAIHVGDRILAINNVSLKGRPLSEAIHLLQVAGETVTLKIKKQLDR"}, "[13]": {"molecular_target": "GRIP2_7, Q9C0E4", "sequence (Q9C0E4 934-1023)": "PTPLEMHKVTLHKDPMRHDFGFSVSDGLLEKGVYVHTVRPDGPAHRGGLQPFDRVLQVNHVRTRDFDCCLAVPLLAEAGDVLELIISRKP"}, "[14]": {"molecular_target": "Inadl_2, Q8NI35", "sequence (Q8NI35 238-335)": "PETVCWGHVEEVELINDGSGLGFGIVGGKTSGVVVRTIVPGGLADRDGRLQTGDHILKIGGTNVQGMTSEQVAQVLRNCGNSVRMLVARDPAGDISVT"}, "[15]": {"molecular_target": "LAP2, Q96RT1", "sequence (Q96RT1 other isoform, or with tags, fused parts or gaps)": "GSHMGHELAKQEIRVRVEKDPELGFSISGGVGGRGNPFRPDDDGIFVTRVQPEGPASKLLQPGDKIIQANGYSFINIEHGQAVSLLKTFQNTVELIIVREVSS"}, "[16]": {"molecular_target": "T4, LIN7B, Q9HAP6", "T4 sequence (Q9HAP6 88-185, limits assumed, looked up)": "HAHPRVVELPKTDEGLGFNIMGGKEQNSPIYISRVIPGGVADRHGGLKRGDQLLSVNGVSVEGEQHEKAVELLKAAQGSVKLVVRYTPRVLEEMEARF"}, "[17]": {"molecular_target": "LNX1_1, Q8TBB1", "sequence (Q8TBB1 261-371)": "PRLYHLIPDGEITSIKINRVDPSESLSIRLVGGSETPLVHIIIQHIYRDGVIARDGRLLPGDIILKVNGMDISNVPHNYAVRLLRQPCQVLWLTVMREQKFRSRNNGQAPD"}, "[18]": {"molecular_target": "LNX1_3, Q8TBB1", "sequence (Q8TBB1 500-596)": "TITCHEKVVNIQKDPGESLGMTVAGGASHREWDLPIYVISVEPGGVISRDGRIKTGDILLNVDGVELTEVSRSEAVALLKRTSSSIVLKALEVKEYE"}, "[19]": {"molecular_target": "MAGI1_2, Q96QZ7", "sequence (Q96QZ7 456-580)": "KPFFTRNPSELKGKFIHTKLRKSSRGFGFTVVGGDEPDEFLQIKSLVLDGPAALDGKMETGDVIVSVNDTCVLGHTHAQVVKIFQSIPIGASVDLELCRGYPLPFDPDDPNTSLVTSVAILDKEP"}, "[20]": {"molecular_target": "MAGI2_4, Q86UL8", "sequence (Q86UL8 772-865)": "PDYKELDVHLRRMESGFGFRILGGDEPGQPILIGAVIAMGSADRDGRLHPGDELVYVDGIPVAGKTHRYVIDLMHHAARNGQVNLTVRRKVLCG"}, "[21]": {"molecular_target": "T5, MPP6, Q9NZW5", "T5 sequence (Q9NZW5 125-219, limits assumed, looked up)": "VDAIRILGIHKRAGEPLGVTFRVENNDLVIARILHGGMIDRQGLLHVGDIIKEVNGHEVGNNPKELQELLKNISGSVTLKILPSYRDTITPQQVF"}, "[22]": {"molecular_target": "T6, MPP7, Q5T2T1", "T6 sequence (Q5T2T1 134-230, limits assumed, looked up)": "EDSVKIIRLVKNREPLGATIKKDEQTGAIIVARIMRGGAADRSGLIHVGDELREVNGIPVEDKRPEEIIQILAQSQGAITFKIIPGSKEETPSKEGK"}, "[23]": {"molecular_target": "T7, NHERF3_4, Q5T2W1", "T7 sequence (Q5T2W1 373-468, limits assumed, looked up)": "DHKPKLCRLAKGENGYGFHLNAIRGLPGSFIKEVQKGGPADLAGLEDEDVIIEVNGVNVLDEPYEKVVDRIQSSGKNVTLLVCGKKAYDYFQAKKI"}, "[24]": {"molecular_target": "T8, PCLO, Q9Y6V0", "T8 sequence (Q9Y6V0 4491-4600, limits assumed, looked up)": "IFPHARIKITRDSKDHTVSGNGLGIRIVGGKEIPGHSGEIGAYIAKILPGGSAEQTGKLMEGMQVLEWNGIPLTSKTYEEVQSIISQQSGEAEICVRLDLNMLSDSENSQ"}, "[25]": {"molecular_target": "T9, PDZD2_2, O15018", "T9 sequence (O15018 329-429, limits assumed, looked up)": "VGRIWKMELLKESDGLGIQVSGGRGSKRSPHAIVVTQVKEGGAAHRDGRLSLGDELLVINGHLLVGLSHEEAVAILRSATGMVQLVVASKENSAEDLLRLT"}, "[26]": {"molecular_target": "T10, PDZD7_3, Q9H5P4", "T10 sequence (Q9H5P4 857-944, limits assumed, looked up)": "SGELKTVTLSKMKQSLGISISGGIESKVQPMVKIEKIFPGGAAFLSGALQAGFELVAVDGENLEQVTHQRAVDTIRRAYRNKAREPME"}, "[27]": {"molecular_target": "T11, RADIL, Q96JH8", "T11 sequence (Q96JH8 971-1071, limits assumed, looked up)": "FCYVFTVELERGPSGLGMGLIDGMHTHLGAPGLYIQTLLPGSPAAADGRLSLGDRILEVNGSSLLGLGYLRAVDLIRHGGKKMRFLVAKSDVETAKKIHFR"}, "[28]": {"conditions": "plain residues with an end cap or a label only (N-terminal biotin on a linker: ado-ado)"}, "[29]": {"conditions": "plain residues with an end cap or a label only (N-terminal biotin on a linker: ttds)"}},
  "data": [
    {"binder": "EDLTKNHDEL", "note": "[RCN1, Q15293]", "values": [
      {"measurement": "pKd", "setting": "[1]; [28]", "result": 3.66},
      {"measurement": "pKd", "setting": "[2]; [28]", "result": "below the threshold"},
      {"measurement": "pKd", "setting": "[3]; [28]", "result": "below the threshold"},
      {"measurement": "pKd", "setting": "[4]; [28]", "result": 4},
      {"measurement": "pKd", "setting": "[5]; [28]", "result": "below the threshold"},
      {"measurement": "pKd", "setting": "[6]; [28]", "result": "below the threshold"},
      {"measurement": "pKd", "setting": "[7]; [28]", "result": "below the threshold"},
      {"measurement": "pKd", "setting": "[8]; [28]", "result": "below the threshold"},
      {"measurement": "pKd", "setting": "[9]; [28]", "result": "below the threshold"},
      {"measurement": "pKd", "setting": "[10]; [28]", "result": "below the threshold"},
      {"measurement": "pKd", "setting": "[11]; [28]", "result": "below the threshold"},
      {"measurement": "pKd", "setting": "[12]; [28]", "result": "below the threshold"},
      {"measurement": "pKd", "setting": "[13]; [28]", "result": 3.59},
      {"measurement": "pKd", "setting": "[14]; [28]", "result": "below the threshold"},
      {"measurement": "pKd", "setting": "[15]; [28]", "result": "below the threshold"},
      {"measurement": "pKd", "setting": "[16]; [28]", "result": "below the threshold"},
      {"measurement": "pKd", "setting": "[17]; [28]", "result": 3.6},
      {"measurement": "pKd", "setting": "[18]; [28]", "result": 3.54},
      {"measurement": "pKd", "setting": "[19]; [28]", "result": "below the threshold"},
      {"measurement": "pKd", "setting": "[20]; [28]", "result": 3.57},
      {"measurement": "pKd", "setting": "[21]; [28]", "result": "below the threshold"},
      {"measurement": "pKd", "setting": "[22]; [28]", "result": "below the threshold"},
      {"measurement": "pKd", "setting": "[23]; [28]", "result": "below the threshold"},
      {"measurement": "pKd", "setting": "[24]; [28]", "result": "below the threshold"},
      {"measurement": "pKd", "setting": "[25]; [28]", "result": 3.62},
      {"measurement": "pKd", "setting": "[26]; [28]", "result": "below the threshold"},
      {"measurement": "pKd", "setting": "[27]; [28]", "result": 3.61}
    ]},
    {"binder": "LDSQIQETSI", "note": "[MAP4, P27816]", "values": [
      {"measurement": "pKd", "setting": "[1]; [29]", "result": "below the threshold"},
      {"measurement": "pKd", "setting": "[2]; [29]", "result": "below the threshold"},
      {"measurement": "pKd", "setting": "[3]; [29]", "result": 3.64},
      {"measurement": "pKd", "setting": "[4]; [29]", "result": 3.61},
      {"measurement": "pKd", "setting": "[5]; [29]", "result": "below the threshold"},
      {"measurement": "pKd", "setting": "[6]; [29]", "result": 3.8},
      {"measurement": "pKd", "setting": "[7]; [29]", "result": "below the threshold"},
      {"measurement": "pKd", "setting": "[8]; [29]", "result": "below the threshold"},
      {"measurement": "pKd", "setting": "[9]; [29]", "result": "below the threshold"},
      {"measurement": "pKd", "setting": "[10]; [29]", "result": "below the threshold"},
      {"measurement": "pKd", "setting": "[11]; [29]", "result": "below the threshold"},
      {"measurement": "pKd", "setting": "[12]; [29]", "result": "below the threshold"},
      {"measurement": "pKd", "setting": "[13]; [29]", "result": "below the threshold"},
      {"measurement": "pKd", "setting": "[14]; [29]", "result": "below the threshold"},
      {"measurement": "pKd", "setting": "[15]; [29]", "result": 3.86},
      {"measurement": "pKd", "setting": "[16]; [29]", "result": "below the threshold"},
      {"measurement": "pKd", "setting": "[17]; [29]", "result": "below the threshold"},
      {"measurement": "pKd", "setting": "[18]; [29]", "result": "below the threshold"},
      {"measurement": "pKd", "setting": "[19]; [29]", "result": "below the threshold"},
      {"measurement": "pKd", "setting": "[20]; [29]", "result": "below the threshold"},
      {"measurement": "pKd", "setting": "[21]; [29]", "result": "below the threshold"},
      {"measurement": "pKd", "setting": "[22]; [29]", "result": "below the threshold"},
      {"measurement": "pKd", "setting": "[23]; [29]", "result": "below the threshold"},
      {"measurement": "pKd", "setting": "[24]; [29]", "result": "below the threshold"},
      {"measurement": "pKd", "setting": "[25]; [29]", "result": 4.36},
      {"measurement": "pKd", "setting": "[26]; [29]", "result": 5.63},
      {"measurement": "pKd", "setting": "[27]; [29]", "result": "below the threshold"}
    ]}
  ]
}
